Data reported in the supplement of paper PMC10065799, “High-throughput profiling of sequence recognition by tyrosine kinases and SH2 domains using bacterial peptide display” (eLife, 2023).

Biological target: Fyn (UniProt P06241)
Test: phosphorylation enrichment, bacterial display (enrichment ratio); higher = better substrate or ligand; peptides without Tyr show the background
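Also: 11-residue human phosphosite peptides and single-mutation variants displayed on the E. coli surface, counted by deep sequencing, each peptide's frequency after selection divided by its frequency in the unselected input library; frequency after pTyr selection over input frequency; kinase dosed for 20-30% of maximal phosphorylation in three min.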

Chain of Fyn (P06241 whole entry, looked up): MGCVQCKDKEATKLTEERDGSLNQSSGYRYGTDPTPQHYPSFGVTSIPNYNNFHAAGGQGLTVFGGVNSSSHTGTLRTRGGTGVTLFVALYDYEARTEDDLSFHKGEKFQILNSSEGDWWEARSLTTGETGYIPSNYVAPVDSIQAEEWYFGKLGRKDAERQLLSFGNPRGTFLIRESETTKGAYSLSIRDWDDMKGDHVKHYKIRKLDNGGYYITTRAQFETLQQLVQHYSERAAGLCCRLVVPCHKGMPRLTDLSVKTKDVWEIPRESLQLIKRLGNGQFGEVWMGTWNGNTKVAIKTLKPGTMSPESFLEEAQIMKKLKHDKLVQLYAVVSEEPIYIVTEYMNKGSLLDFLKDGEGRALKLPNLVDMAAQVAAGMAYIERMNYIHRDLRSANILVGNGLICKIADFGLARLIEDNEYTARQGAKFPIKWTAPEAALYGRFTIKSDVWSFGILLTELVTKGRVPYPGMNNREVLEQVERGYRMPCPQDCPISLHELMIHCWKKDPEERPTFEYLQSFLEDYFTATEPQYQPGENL

| Sequence | phosphorylation enrichment |
| --- | --- |
| DGMADCSDPSY [CDC5L_Y459_Y459C] | 0.492 |
| AKLDEYIAIAK [RCOR3_Y46] | 0.479 |
| YAADYYKLLGN [ROR2_Y646] | 0.452 |
| PRDGEYFTLQI [TP53_Y327_L323R] | 2.55 |
| IGERTYGQVFK [CDK13_Y716_G714R_YF] | 7.52 |
| RGYRQYAYDGK [HLA-A_Y140_D140Y] | 0.252 |
| IIAVHYVLEES [RYR2_Y4559] | 0.457 |
| KDYETYQPFQN [CTNND2_Y1157] | 6 |
| SLHPGYNFRFA [P2RX7_Y291_Y288H_YF] | 0.378 |
| SARVRYLMAEK [LDHB_Y173_F171V] | 0.43 |
| KLIETYFSKNF [PLP1_Y50_YF] | 0.474 |
| TQFWRYFAGNL [SLC25A5_Y112_L111R] | 0.509 |
| QNTVDYFDLFG [PTPN11_Y62_G60V_YF] | 0.614 |
| ALDRPYTSKHS [NANS_Y71_E68D] | 0.499 |
| PRPACYPSTVS [CACNA1C_Y1832_G1831C] | 0.51 |
| NIQKKYFRAIL [CHD7_Y1217_YF] | 0.352 |
| YGEYRYRSVIK [CFTR_Y517_D513G] | 7.2 |
| KGFCGYSFDDI [TMEM230_Y110_R108C_YF] | 0.526 |
| ATKNDYWAMLA [WWOX_Y287_P282A] | 0.384 |
| HEDPMYDIIRD [RP9_Y142] | 5.63 |
| MHFSNYVSKGS [PDGFRA_Y849_D846Y_YF] | 0.495 |
| QRASDYYSQQM [GBP6_Y333_A331S] | 0.574 |
| DWRQEYVLNEP [TGM1_Y267_S272P] | 0.672 |
| ADFFDYGHGLS [KHDRBS3_Y304_YF] | 0.438 |
| LADKPYTFEFF [FXN_Y118_D122Y_YF] | 1.47 |
| VIESSYTSADG [DHCR7_Y382_C380S] | 0.551 |
| TFGVVYKARNK [CDK2_Y19_YF] | 0.422 |
| CRVEPYGENFN [APOA4_Y310_R305C] | 0.441 |
| PLDEEYFTLQI [TP53_Y327_G325E] | 1.91 |

Biological target: MERTK (UniProt Q12866)
Test: as above

Chain of MERTK (Q12866 whole entry, looked up): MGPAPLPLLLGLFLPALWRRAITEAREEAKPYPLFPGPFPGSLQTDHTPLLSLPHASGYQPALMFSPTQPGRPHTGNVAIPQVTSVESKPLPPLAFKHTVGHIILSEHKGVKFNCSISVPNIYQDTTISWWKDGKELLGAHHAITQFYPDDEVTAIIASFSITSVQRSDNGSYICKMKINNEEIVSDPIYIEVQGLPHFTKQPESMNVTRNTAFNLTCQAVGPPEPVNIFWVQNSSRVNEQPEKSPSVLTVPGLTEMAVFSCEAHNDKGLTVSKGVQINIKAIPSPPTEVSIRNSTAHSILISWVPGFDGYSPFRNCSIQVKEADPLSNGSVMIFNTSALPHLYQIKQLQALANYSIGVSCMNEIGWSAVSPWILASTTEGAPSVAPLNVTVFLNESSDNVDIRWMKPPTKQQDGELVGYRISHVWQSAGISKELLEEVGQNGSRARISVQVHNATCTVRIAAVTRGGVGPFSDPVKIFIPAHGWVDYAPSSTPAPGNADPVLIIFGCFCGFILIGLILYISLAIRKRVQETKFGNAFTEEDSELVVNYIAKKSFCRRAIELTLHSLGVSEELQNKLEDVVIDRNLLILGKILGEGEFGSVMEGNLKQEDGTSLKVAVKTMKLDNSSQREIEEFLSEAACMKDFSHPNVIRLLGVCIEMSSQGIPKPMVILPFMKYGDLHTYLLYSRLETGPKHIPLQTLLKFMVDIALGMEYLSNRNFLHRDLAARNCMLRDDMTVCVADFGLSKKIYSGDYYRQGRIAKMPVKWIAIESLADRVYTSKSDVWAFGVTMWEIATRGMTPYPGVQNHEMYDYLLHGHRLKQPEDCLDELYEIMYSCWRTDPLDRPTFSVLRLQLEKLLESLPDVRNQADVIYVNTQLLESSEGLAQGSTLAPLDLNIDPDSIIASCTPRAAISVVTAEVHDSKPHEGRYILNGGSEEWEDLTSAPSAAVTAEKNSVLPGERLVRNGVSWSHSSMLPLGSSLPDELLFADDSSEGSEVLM

| Sequence | phosphorylation enrichment |
| --- | --- |
| DGMADCSDPSY [CDC5L_Y459_Y459C] | 0.412 |
| AKLDEYIAIAK [RCOR3_Y46] | 0.522 |
| YAADYYKLLGN [ROR2_Y646] | 1.47 |
| PRDGEYFTLQI [TP53_Y327_L323R] | 0.93 |
| IGERTYGQVFK [CDK13_Y716_G714R_YF] | 0.4 |
| RGYRQYAYDGK [HLA-A_Y140_D140Y] | 0.423 |
| IIAVHYVLEES [RYR2_Y4559] | 0.484 |
| KDYETYQPFQN [CTNND2_Y1157] | 0.514 |
| SLHPGYNFRFA [P2RX7_Y291_Y288H_YF] | 0.394 |
| SARVRYLMAEK [LDHB_Y173_F171V] | 0.417 |
| KLIETYFSKNF [PLP1_Y50_YF] | 0.427 |
| TQFWRYFAGNL [SLC25A5_Y112_L111R] | 0.433 |
| QNTVDYFDLFG [PTPN11_Y62_G60V_YF] | 0.646 |
| ALDRPYTSKHS [NANS_Y71_E68D] | 0.448 |
| PRPACYPSTVS [CACNA1C_Y1832_G1831C] | 0.356 |
| NIQKKYFRAIL [CHD7_Y1217_YF] | 0.458 |
| YGEYRYRSVIK [CFTR_Y517_D513G] | 0.463 |
| KGFCGYSFDDI [TMEM230_Y110_R108C_YF] | 0.471 |
| ATKNDYWAMLA [WWOX_Y287_P282A] | 0.499 |
| HEDPMYDIIRD [RP9_Y142] | 5.24 |
| MHFSNYVSKGS [PDGFRA_Y849_D846Y_YF] | 0.381 |
| QRASDYYSQQM [GBP6_Y333_A331S] | 0.558 |
| DWRQEYVLNEP [TGM1_Y267_S272P] | 0.495 |
| ADFFDYGHGLS [KHDRBS3_Y304_YF] | 0.434 |
| LADKPYTFEFF [FXN_Y118_D122Y_YF] | 1.22 |
| VIESSYTSADG [DHCR7_Y382_C380S] | 0.596 |
| TFGVVYKARNK [CDK2_Y19_YF] | 0.321 |
| CRVEPYGENFN [APOA4_Y310_R305C] | 0.583 |
| PLDEEYFTLQI [TP53_Y327_G325E] | 0.941 |
